Paper PMC3215731

Molecular target: TNC-scTNFR2 (trimerization domain of human tenascin C fused to the N-terminus of the TNFR2-selective single-chain TNF) (human) (UniProt P24821)
Assay: SEC; HPLC-SEC, BioSep-SEC-S2000 7.8x300 column, PBS, 0.5 ml/min, 50 µl sample at 0.1 to 0.5 mg/ml, against standard proteins; oligomerization state under native conditions

stoichiometry N: 3
Substance: TNC-scTNFR2 (trimerization domain of human tenascin C fused to the N-terminus of the TNFR2-selective single-chain TNF) (from UniProt P24821 110-139) (ligand)
